These results are taken from the RNAGym collection of RNA variant scans (doi:10.7554/elife.90254).

B1: LINE1-full (parent)
chain: UACGUAGGUGGUUUUCCCCUGAUAGUGCUAAGGGGGCCUGGAAGUUUGGACUGGGCAGAGCUCAACACAGCGUGGCAAAGUGGCUGUGGCUAGACUGCCUCUCUGGAUUCCUCGUCACUCAGCAGGGCAUCUCUGAGAGAAAUGCC

This data set covers variants of B1. Briefly: self-cleavage, relative activity (ratio to wild type); higher = more cleavage; in vitro, sequencing; the parent is a self-cleaving ribozyme.
Consider UACGUAGGUGGUUUUCCCCUGAUAGUGCUAGGGGGGCCUGGAAGUUUGGACUGGGCAGAGCUCAACACAGCGUGGCAAAGUAGCUGUGGCUAGACUGCCUCUCUGGAUUCCUCGUCACUCAGCAGGGCAUCUCUGAGAGAAAUGCC, for which the self-cleavage amounted to 2.09.
As for UACGUAGGUGGUUUUCCCCUGAUAGUGCUAUGGGGGCCUGGAAGUUUGGACUGGGCGGAGCUCAACACAGCGUGGCAAAGUGGCUGUGGCUAGACUGCCUCUCUGGAUUCCUCGUCACUCAGCAGGGCAUCUCUGAGAGAAAUGCC, the figure is 1; as for UACGUAGGUGGUUUUCCCCUGAUAGUGCUAGGGGGGCCUGGAAGUUUGGACUGGGCAGAGCUCAACACAGCGUGGCAAAGUGGCUGUGGCUAGACUGCCUCUCUGGACUCCUCGUCACUCAGCAGGGCAUCUCUGAGAGAAAUGCC, 1.26.
With UACGUAGGUGGUUUUCCCCUGAUAGUGCUAGGGGGGCCUGGAAGUUUGGACUGGGCAGAGCUCAACACAGCAUGGCAAAGUGGCUGUGGCUAGACUGCCUCUCUGGAUUCCUCGUCACUCAGCAGGGCAUCUCUGAGAGAAAUGCC, the self-cleavage turned out to be 0.77.
Turning to UACGUAGGUGGUUUUCCCCUGAUAGUGCUAGGGGGGCCUGGAAGUUUGGACUGGGCAGAGCUCAACACAGCGUGGCAAAGCGGCUGUGGCUAGACUGCCUCUCUGGAUUCCUCGUCACUCAGCAGGGCAUCUCUGAGAGAAAUGCC, the self-cleavage is 0.69.
For the variant UACGUAGGUGGUUUUCCCCUGAUAGUGCUAGGGGGGCCUGGAAGUUUGGACUGGGCAGAGCUCAACACAGCGUGGCAAAGAGGCUGUGGCUAGACUGCCUCUCUGGAUUCCUCGUCACUCAGCAGGGCAUCUCUGAGAGAAAUGCC, the self-cleavage is 0.66.
On to UACGUAGGUGGUUUUCCCCUGAUAGUGCUAGGGGGGCCUGGAAGUUUGGACUGGGCAGAGCUCAACACAGCGUGGCAAAGUGGCUGCGGCUAGACUGCCUCUCUGGAUUCCUCGUCACUCAGCAGGGCAUCUCUGAGAGAAAUGCC, for which the self-cleavage worked out at 0.22.
As for UACGUAGGUGGUUUUCCCCUGAUAGUGCUAGGGGGGCCUGGAAGUUUGGACUGGGCAGAGCUCAACACAGCGUGGCAAAGUGGCUGUGGCUAGACUGCCUCUCUGGAUUCCUCGUCACUCAGCAGGGCAUCUCAGAGAGAAAUGCC, the figure is 0.45; as for UACGUAGGUGGUUUUCCCCUGAUAGUGCUAGGGGGGCCUGGAAGUUUGGACUGGGCAGAGCUCAACACAGCGUGGCAAAGUGGCUGUGGCUAGACUGCCUCUCUGGAUUCCUCGUCACUCAGCAGGGCAUCUCCGAGAGAAAUGCC, 1.53; as for UACGUAGGUGGUUUUCCCCUGAUAGUGCUAGGGGGGCCUGGAAGUUUGGACUGGGCAGAGCUCAACACAGCGCGGCAAAGUGGCUGUGGCUAGACUGCCUCUCUGGAUUCCUCGUCACUCAGCAGGGCAUCUCUGAGAGAAAUGCC, 0.77.
To UACGUAGGUGGUUUUCCCCUGAUAGUGCUAGGGGGGCCUGGAAGUUUGGACUGGGCAGAGCUCAACACAGCGAGGCAAAGUGGCUGUGGCUAGACUGCCUCUCUGGAUUCCUCGUCACUCAGCAGGGCAUCUCUGAGAGAAAUGCC belongs 0.79; to UACGUAGGUGGUUUUCCCCUGAUAGUGCUAGGGGGGCCUGGAAGUUUGGACUGGGCAGAGCUCAACACAGCGUGGCAAAGUGGCUGUGGCUAGACUGCCUCCCUGGAUUCCUCGUCACUCAGCAGGGCAUCUCUGAGAGAAAUGCC, 0.35.
For the variant UACGUAGGUGGUUUUCCCCUGAUAGUGCUAUGGGGGCCUGGAAGUUUGGACUGGGCAGAGCUCAACACAGCGUGGCAAAGUGGCUGUGGCUAGACUGCCUCUCUGGAUUCCUCGUCACUCAGCAGGGCAUCUCUGAGAGAAAUGCC, the self-cleavage was determined as 1.03.
Consider UACGUAGGUGGUUUUCCCCUGAUAGUGCUAGGGGGGCCUGGAAGUUUGGACUGGGCAGAGCUCAACACAGCGUGGCAAAGUGGCUGUGGCUAGACUGCCUCUCAGGAUUCCUCGUCACUCAGCAGGGCAUCUCUGAGAGAAAUGCC, for which the self-cleavage was found to be 0.48.
To UACGUAGGUGGUUUUCCCCUGAUAGUGCUAGGGGGGCCUGGAAGUUUGGACUGGGCAGAGCUCAACACAGCGUGGCAAAGUGGCUGUGGCUAGACUGCCUCUCUGGAUUCCUCGUCACUCAGCAGGGCAUCCCUGAGAGAAAUGCC belongs 0.85; to UACGUAGGUGGUUUUCCCCUGAUAGUGCUAGGGGGGCCUGGAAGUUUGGACUGGGCAGAGCUCAACACAGCGUGGCAAAGUGGCUGUGGCUAGACAGCCUCUCUGGAUUCCUCGUCACUCAGCAGGGCAUCUCUGAGAGAAAUGCC, 0.11; to UACGUAGGUGGUUUUCCCCUGAUAGUGCUAGGGGGGCCUGGAAGUUUGGACUGGGCAGAGCUCAACACAGCGUGGCAAAGUGGCUGUGGCUAGACCGCCUCUCUGGAUUCCUCGUCACUCAGCAGGGCAUCUCUGAGAGAAAUGCC, 0.16.
As for UACGUAGGUGGUUUUCCCCUGAUAGUGCUAGGGGGGCCUGGAAGUCUGGACUGGGCAGAGCUCAACACAGCGUGGCAAAGUGGCUGUGGCUAGACUGCCUCUCUGGAUUCCUCGUCACUCAGCAGGGCAUCUCUGAGAGAAAUGCC, the figure is 1.67.
To UACGUAGGUGGUUUUCCCCUGAUAGUGCUAGGGGGGCCUGGAAGUUUGGACUGGGCAGAGCUCAACACAGCGUGGCAAAGUGGCUGUGGCUAGACUGCCUCUCUGGAUUCCCCGUCACUCAGCAGGGCAUCUCUGAGAGAAAUGCC belongs 1.3; to UACGUAGGUGGUUUUCCCCUGAUAGUGCUAUGGGGGCCUGGAAGUUUGGGCUGGGCAGAGCUCAACACAGCGUGGCAAAGUGGCUGUGGCUAGACUGCCUCUCUGGAUUCCUCGUCACUCAGCAGGGCAUCUCUGAGAGAAAUGCC, 0.16.
Turning to UACGUAGGUGGUUUUCCCCUGAUAGUGCUAUGGGGGCCUGGAGGUUUGGACUGGGCAGAGCUCAACACAGCGUGGCAAAGUGGCUGUGGCUAGACUGCCUCUCUGGAUUCCUCGUCACUCAGCAGGGCAUCUCUGAGAGAAAUGCC, the self-cleavage was found to be 0.9.
To UACGUAGGUGGUUUUCCCCUGAUAGUGCUAGGGGGGCCUGGAAGUUUGGACUGGGCAGAGCUCAACACAGCGUGGCAAAGUGGCUGUGGCUAGACUGCCUCUCUGGAUCCCUCGUCACUCAGCAGGGCAUCUCUGAGAGAAAUGCC belongs 0.79; to UACGUAGGUGGUUUUCCCCUGAUAGUGCUAGGGGGGCCUGGAAGUUCGGACUGGGCAGAGCUCAACACAGCGUGGCAAAGUGGCUGUGGCUAGACUGCCUCUCUGGAUUCCUCGUCACUCAGCAGGGCAUCUCUGAGAGAAAUGCC, 0.79.
To UACGUAGGUGGUUUUCCCCUGAUAGUGCUAGGGGGGCCUGGAAGUUAGGACUGGGCAGAGCUCAACACAGCGUGGCAAAGUGGCUGUGGCUAGACUGCCUCUCUGGAUUCCUCGUCACUCAGCAGGGCAUCUCUGAGAGAAAUGCC belongs 0.94.
As for UACGUAGGUGGUUUUCCCCUGAUAGUGCUAGGGGGGCCUGGAAGUUUGGACUGGGCAGAGCUCAACACAGCGUGGCAAAGUGGCUGUGGCAAGACUGCCUCUCUGGAUUCCUCGUCACUCAGCAGGGCAUCUCUGAGAGAAAUGCC, the figure is 0.3.
UACGUAGGUGGUUUUCCCCUGAUAGUGCUAGGGGGGCCUGGAAGUUUGGACUGGGCAGAGCUCAACACAGCGUGGCAAAGUGGCUGUGGCUAGACUGCCUCUCUGGAUUCCUCGUCACUCAGCAGGGCAUCUCUGAGAAAAAUGCC: the self-cleavage amounted to 1.19.
To UACGUAGGUGGUUUUCCCCUGAUAGUGCUAGGGGGGCCUGGAAGUUUGGACUGGGCAGAGCUCAACACAGCGUGGCAAAGUGGCUGUGGCUAGACUGCCUCUCUGGAUUCCUCGUCACUCAGCAGGGCAUCUCUGAGAUAAAUGCC belongs 1.67; to UACGUAGGUGGUUUUCCCCUGAUAGUGCUAGGGGGGCCUGGAAGUUUGGACUGGGCAGAGCUCAACACAGCGUGGCAAAGUGGCUGUGGCUAGACUGCCUCUCUGGAUUCCUCGUCACUCAGCAGGGCAGCUCUGAGAGAAAUGCC, 1.84; to UACGUAGGUGGUUUUCCCCUGAUAGUGCUAGGGGGGCCGGGAAGUUUGGACUGGGCAGAGCUCAACACAGCGUGGCAAAGUGGCUGUGGCUAGACUGCCUCUCUGGAUUCCUCGUCACUCAGCAGGGCAUCUCUGAGAGAAAUGCC, 1.37.
Turning to UACGUAGGUGGUUUUCCCCUGAUAGUGCUAGGGGGGCCAGGAAGUUUGGACUGGGCAGAGCUCAACACAGCGUGGCAAAGUGGCUGUGGCUAGACUGCCUCUCUGGAUUCCUCGUCACUCAGCAGGGCAUCUCUGAGAGAAAUGCC, the self-cleavage is 0.49.
To UACGUAGGUGGUUUUCCCCUGAUAGUGCUAGGGGGGCCUGGAAGUUUGGACUGGGCAGAGCUCAACACAGCGUGGCAAAGUGGCUGUGGCUAGACUGCCCCUCUGGAUUCCUCGUCACUCAGCAGGGCAUCUCUGAGAGAAAUGCC belongs 1.29; to UACGUAGGUGGUUUUCCCCUGAUAGUGCUAGGGGGGCCUGGAAGUUUGGACUGGGCAGAGCUCAACACAGCGUGGCAAAGUGGCAGUGGCUAGACUGCCUCUCUGGAUUCCUCGUCACUCAGCAGGGCAUCUCUGAGAGAAAUGCC, 0.11; to UACGUAGGUGGUUUUCCCCUGAUAGUGCUAGGGGGGCCUGGAAGUUUGGACUGGGCAGAGCUCAACACAGCGUGGCAAAGUGGCCGUGGCUAGACUGCCUCUCUGGAUUCCUCGUCACUCAGCAGGGCAUCUCUGAGAGAAAUGCC, 0.33.
As for UACGUAGGUGGUUUUCCCCUGAUAGUGCUAGGGGGGCCUGGAAGUUUGGACUGGGCAGAGCUCAACACAGCGUGGCAAAGUGGCUGUGGCUAGACUGCCUCUCUGGAUUCCUCGUCACUCAGCAGGGCAUCUCUAAGAGAAAUGCC, the figure is 1.09; as for UACGUAGGUGGUUUUCCCCUGAUAGUGCUAGGGGGGCCUGGAAGUUUGGACUGGGCAGAGCUCAACACAGCGUGGCAAAGUGGCUGUGGCUAGACUGCCUCUCUGGAUUCCUCGUCACUCAGCAUGGCAUCUCUGAGAGAAAUGCC, 0.96; as for UACGUAGGUGGUUUUCCCCUGAUAGUGCUAGGGGGGCCUGGAAGUUUGGACUGGGCAGAGCUCAACACAGCGUGGCAAAGUGGCUGUGGCUAGACUGCCUCUCUGGAUUCCUCGUCACUCAGCAGGGCAUCUCUGAGAGAAACGCC, 1.04.
As for UACGUAGGUGGUUUUCCCCUGAUAGUGCUAGGGGGGCCUGGAAGUUUGGACUGGGCAGAGCUCAACACAGCGUGGCAAAGUGGCUGUGGCUAGACUGCCUCUCUGGAUUCCUCGUCACACAGCAGGGCAUCUCUGAGAGAAAUGCC, the figure is 1.39.
Take UACGUAGGUGGUUUUCCCCUGAUAGUGCUAGGGGGGCCUGGAAGUUUGGACUGGGCAGAGCUCAACACAGCGUGGCAAAGUGGCUGUGGCUAGACUGCCUCUCUGGAUUCCUCGUCACCCAGCAGGGCAUCUCUGAGAGAAAUGCC: the self-cleavage turned out to be 1.94.
As for UACGUAGGUGGUUUUCCCCUGAUAGUGCUAGGGGGGCCUGGAAGUUUGGACUGGGCAGAGCUCAACACAGCGUGGCAAAGUGGCUGUGGCUAGACUGCCUCUCUGGAUUCCUCAUCACUCAGCAGGGCAUCUCUGAGAGAAAUGCC, the figure is 1.09.
